Reference: PMC7782499, “Progerinin, an optimized progerin-lamin A binding inhibitor, ameliorates premature senescence phenotypes of Hutchinson-Gilford progeria syndrome” (Communications Biology, 2021)
Several values for one entry are separate records, joined by “and”; a condition that tells them apart may be missing. Identical values can stand only once.

Columns and labels:
[1] = Plasma protein binding, rat; type: in vitro ADME
Method: (§1) At pre-set time-points, blood concentration of JH4 was determined by LC-MS/MS analysis[22],[23]. Other chemicals were also tested using similar protocol. In vitro ADME studies (plasma protein binding, CYP inhibition, microsomal stability, plasma stability, and hERG inhibition) were performed by New Drug Development Center (Daegu, Korea) using standard protocols[24],[25].

[2] = Plasma protein binding, human; type: in vitro ADME
Method: as §1

HEK293 cells [3] = experiment: GFP-tagged protein and H3K9me3 expression in transfected HEK293 cells; type: cell-based; conditions: for GFP relative expression in Western Blot, Ave / GFP positive cells in total cells, Ave: average (Fig S1D); for GFP relative expression (ratio), Ave: average (Fig S1F); for Relative H3K9me3 expression, Ave: average (Fig S1G); for GFP relative expression in Western Blot / GFP positive cells in total cells: single replicates (Fig S1D); for GFP relative expression (ratio): single replicates (Fig S1F); for Relative H3K9me3 expression: single replicates (Fig S1G); for GFP positive cells in total cells, Ave / GFP positive cells in total cells: transfected cells;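 as to Relative H3K9me3 expression, Ave: Western blot band quantification of H3K9me3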;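 as to Relative H3K9me3 expression: Western blot band quantification of H3K9me3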
Description: (§2) GFP tag conjugated EV (GFP-EV), lamin A (GFP-LA), lamin A-C661A (GFP-LA-C661A), progerin (GFP-PG), and progerin-C611A (GFP-PG-C611A) vectors were used. GFP-PG and GFP-LA expression vectors were kindly provided by Misteli T. (National Cancer Institute [NCI], Frederick, MD, USA). GFP-LA-C661A and GFP-PG-C611A expression vectors were created by a single point mutation in CaaX motif. The CSIM sequence of lamin A, or progerin was mutated to ASIM. jetPEI (Polyplus Transfection, NY, USA) was used for transfection of expression vectors. Vectors were mixed with 1.5 μl of jetPEI in 150 mM NaCl solution. The mixture was added to HEK293 cells. After 4 h of incubation, medium was replaced with a new medium supplemented with 10% FBS.
Protein was extracted from cells using a radioimmunoprecipitation assay (RIPA) buffer (50 mM Tris-Cl, pH 7.5, 150 mM NaCl, 1% NP-40, 0.1% SDS, and 10% sodium deoxycholate). Samples were separated by sodium dodecyl sulfate-polyacrylamide gel electrophoresis (SDS-PAGE) and transferred to polyvinylidene difluoride (PVDF) membranes. Blotted membranes were blocked with 3% skimmed milk in TBS-T buffer (20 mM Tris pH 7.6, 150 mM NaCl, and 0.05% Tween 20) for 1 h followed by incubation with specific primary antibodies. Horseradish peroxidase (HRP)-conjugated goat anti-mouse, goat anti-rabbit, and mouse anti-goat IgG antibodies (Pierce, Thermo Fisher Scientific, Inc., Rockford, IL, USA) were used as secondary antibodies. Peroxidase activity was detected by chemiluminescence using an ECL kit (Intron, Seoul, Korea) following the manufacturer’s instructions. Bands were quantified using Image J software (National Institute of Health, NIH).
(§3) Fig. S1. Generation of point mutation in CaaX motif of lamin A and progerin for blocking farnesylation.
(§4) A. Sequence of expression vector encoding LA-C661A was created by single point mutation in CaaX motif.
WT-LA with CSIM sequence was mutated to ASIM. B. Sequence of expression vector encoding progerin-C611A with a single point mutation in CaaX motif. Progerin with CSIM sequence was mutated to ASIM.
C. Transient transfection of HEK293 cells with LA-C661A or PG-C611A seems to be indistinguishable from that of authentic WT-LA, or progerin. D. Measurement of proteins (GFP-LA, GFP-LA-C661A, GFP-PG, and GFP-PG-C611A) expression by counting of GFP-positive cells and western blot analysis. The blue […]
fluorescence images were randomly selected and the number of GFP expressing cells were calculated. The […]
experiment; two-tailed Student’s t-test), N.S: not significant. Quantification of western blot by Ima ge J software (National Institute of Health, NIH). […]
Quantification of GFP -tagged expression vector encoding e mpty (EV), wild-type lamin A (WT-LA), lamin A-C661A (LA-C661A), progerin, or progerin- C611A. Blots of GFP expression were quantified using Image J software. (n = 3 independent experiment; two- tailed Student’s t -test), N.S: not significant. G.
Quantification of H3K9me3 expression. […]

HEK293 cells [4] = experiment: Nuclear deformation in GFP-positive HEK293 cells transfected with lamin A / progerin vectors; type: cell-based; conditions: for % of deformed nuclei in GFP positive cells, Ave: average (Fig S1E); for % of deformed nuclei in GFP positive cells: single replicates (Fig S1E)
Description: as §2
For nuclear deformation cell counting, immunofluorescence staining was performed with lamin A or progerin antibodies. After staining, abnormal nuclear membrane was counted in randomly selected fields and expressed as percentages or actual numbers of total cells counted. Abnormalities of nuclear membrane were determined based on the following: (1) lamin A/C or progerin lining was extruded or engulfed, (2) having at least one bleb, and (3) irregular contour. Counting of cells with nuclear deformation was performed by three independent observers who were blinded to chemical treatment group. To analyze histone H3K9me3 intensity or expression, images were quantified using “color histogram” function of Image J software (National Institute of Health, NIH). Fluorescence intensities were subtracted by background signals.
as §3, §4
WT-LA with CSIM sequence was mutated to ASIM. B. Sequence of expression vector encoding progerin-
C611A with a single point mutation in CaaX motif. Progerin with CSIM sequence was mutated to ASIM. […]
D. Measurement of proteins (GFP-LA, GFP-LA-C661A, GFP- […]
Quantification of western blot by Ima ge J
software (National Institute of Health, NIH). E. Quantification of nuclear deformation in GFP positive
HEK293 cells. At least 100 cells/sample/experiment were counted by two independent researchers. The
statistical significance was analyzed by Student’s t -test. **p < 0.001, *p < 0.05, N.S: not significant. F. […]

| fraction unbound [1] | Plasma protein binding [2] [% Bound] | fraction unbound ([2]; human, plasma) | Molecule | GFP relative expression in Western Blot, Ave (HEK293 cells [3]) | GFP relative expression (ratio), Ave (HEK293 cells [3]) | Relative H3K9me3 expression, Ave (HEK293 cells [3]) | GFP relative expression in Western Blot (HEK293 cells [3]) | GFP relative expression (ratio) (HEK293 cells [3]) | Relative H3K9me3 expression (HEK293 cells [3]) | GFP positive cells in total cells, Ave (HEK293 cells [3]) | GFP positive cells in total cells (HEK293 cells [3]) | % of deformed nuclei in GFP positive cells, Ave (HEK293 cells [4]) [%] | % of deformed nuclei in GFP positive cells (HEK293 cells [4]) |
| --- | --- | --- | --- | --- | --- | --- | --- | --- | --- | --- | --- | --- | --- |
| 0.156 | 62.1 | 0.345 | C[C@@H]1C[C@H]2[C@@H]3CCC4=CC(=O)C=C[C@]4(C)[C@@]3(F)[C@@H](O)C[C@]2(C)[C@@]1(O)C(=O)CO [Dexamethasone] | – | – | – | – | – | – | – | – | – | – |
| – | – | – | LA (protein, UniProt P02545 1-661, looked up) Prelamin-A/C: METPSQRRATRSGAQASSTPLSPTRITRLQEKEDLQELNDRLAVYIDRVRSLETENAGLRLRITESEEVVSREVSGIKAAYEAELGDARKTLDSVAKERARLQLELSKVREEFKELKARNTKKEGDLIAAQARLKDLEALLNSKEAALSTALSEKRTLEGELHDLRGQVAKLEAALGEAKKQLQDEMLRRVDAENRLQTMKEELDFQKNIYSEELRETKRRHETRLVEIDNGKQREFESRLADALQELRAQHEDQVEQYKKELEKTYSAKLDNARQSAERNSNLVGAAHEELQQSRIRIDSLSAQLSQLQKQLAAKEAKLRDLEDSLARERDTSRRLLAEKEREMAEMRARMQQQLDEYQELLDIKLALDMEIHAYRKLLEGEEERLRLSPSPTSQRSRGRASSHSSQTQGGGSVTKKRKLESTESRSSFSQHARTSGRVAVEEVDEEGKFVRLRNKSNEDQSMGNWQIKRQNGDDPLLTYRFPPKFTLKAGQVVTIWAAGAGATHSPPTDLVWKAQNTWGCGNSLRTALINSTGEEVAMRKLVRSVTVVEDDEDEDGDDLLHHHHGSHCSSSGDPAEYNLRSRTVLCGTCGQPADKASASGSGAQVGGPISSGSSASSVTVTRSYRSVGGSGGGSFGDNLVTRSYLLGNSSPRTQSPQNC | 1.171 | 0.7757 | 4.873 | 1.2 and 1.286 and 1.029 | 0.8616 and 0.6545 and 0.811 | 5.1 and 4.62 and 4.9 | 0.7312 | 0.897 and 0.585 and 0.741 (2×) and 0.546 and 0.819 (2×) and 0.702 | – | – |
| – | – | – | LA-C661A (protein, UniProt P02545 1-661, looked up, variant C661A) Prelamin-A/C: METPSQRRATRSGAQASSTPLSPTRITRLQEKEDLQELNDRLAVYIDRVRSLETENAGLRLRITESEEVVSREVSGIKAAYEAELGDARKTLDSVAKERARLQLELSKVREEFKELKARNTKKEGDLIAAQARLKDLEALLNSKEAALSTALSEKRTLEGELHDLRGQVAKLEAALGEAKKQLQDEMLRRVDAENRLQTMKEELDFQKNIYSEELRETKRRHETRLVEIDNGKQREFESRLADALQELRAQHEDQVEQYKKELEKTYSAKLDNARQSAERNSNLVGAAHEELQQSRIRIDSLSAQLSQLQKQLAAKEAKLRDLEDSLARERDTSRRLLAEKEREMAEMRARMQQQLDEYQELLDIKLALDMEIHAYRKLLEGEEERLRLSPSPTSQRSRGRASSHSSQTQGGGSVTKKRKLESTESRSSFSQHARTSGRVAVEEVDEEGKFVRLRNKSNEDQSMGNWQIKRQNGDDPLLTYRFPPKFTLKAGQVVTIWAAGAGATHSPPTDLVWKAQNTWGCGNSLRTALINSTGEEVAMRKLVRSVTVVEDDEDEDGDDLLHHHHGSHCSSSGDPAEYNLRSRTVLCGTCGQPADKASASGSGAQVGGPISSGSSASSVTVTRSYRSVGGSGGGSFGDNLVTRSYLLGNSSPRTQSPQNA | 1.219 | 0.7753 | 4.563 | 1.3 and 1.171 and 1.186 | 0.9644 and 0.614 and 0.7475 | 5.03 and 4.5 and 4.16 | 0.7264 | 0.819 and 0.936 and 0.741 (2×) and 0.546 and 0.585 and 0.78 and 0.663 | 7.286 | 8% and 6% and 10% and 5% and 9% |
| – | – | – | PG-C611A (protein, left off: GFP, end not stated, kept) METPSQRRATRSGAQASSTPLSPTRITRLQEKEDLQELNDRLAVYIDRVRSLETENAGLRLRITESEEVVSREVSGIKAAYEAELGDARKTLDSVAKERARLQLELSKVREEFKELKARNTKKEGDLIAAQARLKDLEALLNSKEAALSTALSEKRTLEGELHDLRGQVAKLEAALGEAKKQLQDEMLRRVDAENRLQTMKEELDFQKNIYSEELRETKRRHETRLVEIDNGKQREFESRLADALQELRAQHEDQVEQYKKELEKTYSAKLDNARQSAERNSNLVGAAHEELQQSRIRIDSLSAQLSQLQKQLAAKEAKLRDLEDSLARERDTSRRLLAEKEREMAEMRARMQQQLDEYQELLDIKLALDMEIHAYRKLLEGEEERLRLSPSPTSQRSRGRASSHSSQTQGGGSVTKKRKLESTESRSSFSQHARTSGRVAVEEVDEEGKFVRLRNKSNEDQSMGNWQIKRQNGDDPLLTYRFPPKFTLKAGQVVTIWAAGAGATHSPPTDLVWKAQNTWGCGNSLRTALINSTGEEVAMRKLVRSVTVVEDDEDEDGDDLLHHHHGSHCSSSGDPAEYNLRSRTVLCGTCGQPADKASASGSGAQSPQNASIM | – | 0.82 | 2.153 | – | 0.9957 and 0.6855 and 0.7789 | 2.22 and 2.38 and 1.86 | 0.7166 | 0.624 (2×) and 0.546 and 0.585 and 0.819 and 0.897 and 0.78 and 0.858 | 97.7143 | 95% and 100% and 96% and 98% |
| – | – | – | WT-LA (protein, left off: GFP, end not stated, state not stated) METPSQRRATRSGAQASSTPLSPTRITRLQEKEDLQELNDRLAVYIDRVRSLETENAGLRLRITESEEVVSREVSGIKAAYEAELGDARKTLDSVAKERARLQLELSKVREEFKELKARNTKKEGDLIAAQARLKDLEALLNSKEAALSTALSEKRTLEGELHDLRGQVAKLEAALGEAKKQLQDEMLRRVDAENRLQTMKEELDFQKNIYSEELRETKRRHETRLVEIDNGKQREFESRLADALQELRAQHEDQVEQYKKELEKTYSAKLDNARQSAERNSNLVGAAHEELQQSRIRIDSLSAQLSQLQKQLAAKEAKLRDLEDSLARERDTSRRLLAEKEREMAEMRARMQQQLDEYQELLDIKLALDMEIHAYRKLLEGEEERLRLSPSPTSQRSRGRASSHSSQTQGGGSVTKKRKLESTESRSSFSQHARTSGRVAVEEVDEEGKFVRLRNKSNEDQSMGNWQIKRQNGDDPLLTYRFPPKFTLKAGQVVTIWAAGAGATHSPPTDLVWKAQNTWGCGNSLRTALINSTGEEVAMRKLVRSVTVVEDDEDEDGDDLLHHHHGSHCSSSGDPAEYNLRSRTVLCGTCGQPADKASASGSGAQVGGPISSGSSASSVTVTRSYRSVGGSGGGSFGDNLVTRSY | – | – | – | – | – | – | – | – | 7 | 6% and 8% and 4% and 9% and 12% |
